For experiment [1], the target named is T1, C3b (human, UniProt P01024 23-667; P01024 749-1663).
T1 construct: also called soluble C3b; human C3b
Kind of experiment: competitive ELISA, column 'Mu Ic50 (nM)'; format of paragraph 183: variant in solution competes with coated huCRIg(L)-LFH for C3b. How it is done: (§1) huCRIg(L)-LFH was diluted to 2μg/mL in PBS, pH 7.4, and coated onto Maxisorp 384-well flat bottom plates (Nunc, Neptune, NJ) by incubating overnight (16-18 hr) at 4° C. (25 ul/well). The plates were washed 3 times in Wash Buffer (PBS, pH7.4, 0.05% Tween 20), and 50 ul/well of Block Buffer (PBS, pH 7.4, 0.5% BSA) was added to each well. The plates were allowed to block for 1-3hr; this and all subsequent incubations were performed on an orbital shaker at room temperature. During the blocking step, C3b (purified at Genentech) was diluted to 20 nM in Assay Buffer (PBS pH7.4, 0.5% BSA, 0.05% Tween-20), and the mutCRlg-huFc molecules were serially diluted in Assay Buffer, over a concentration range of 20,000—0.34 nM. The C3b and mutCRlg-huFc molecules were then mixed 1:1 and allowed to pre-incubate for 0.5-1 hr. The blocked plates were washed three times (as described above), and the C3b:mutCRlg-huFc complexes were added to the reaction plates (25 ul/well). After a 1-2 hr incubation, The ELISA plates were washed three times, (as described above) and plate-bound C3b was detected by the addition of an anti-human C3b antibody (clone 5F202, US Biological, Swampscott, Mass.; 600 ng/mL, 25 ul/well). The plates were incubated for 1-2 hr and washed as described above. HRP-conjugated anti-murine Fc IgG (Jackson ImmunoResearch, West Grove, Pa.) diluted 1:2,000 was then added (25 ul/well), and the plates were incubated for 1-2 hr. After a final wash, 25 ul/well of TMB substrate (Kirkegaard & Perry Laboratories, Gaithersburg, Md.) was added to the ELISA plates. Color development was stopped after approximately 8min by adding 25 ul/well 1.0M phosphoric acid. Absorbance at 450 nm and 650 nm was determined using a SpectraMax 250 microtiter plate reader (Molecular Devices, Sunnyvale, Calif.).
A general note: An ELISA detects its analyte on a solid surface through an enzyme-linked reagent.

Experiment [2] concerns the target T1, C3b. Kind of experiment: competitive ELISA (competitive displacement of C3b); format of paragraph 183: variant in solution competes with coated huCRIg(L)-LFH for C3b. The protocol: as §1, with “HRP-conjugated anti-murine Fc IgG (Jackson ImmunoResearch, West Grove, Pa.) diluted 1:2,000 was then added (25 ul/well), and the plates were incubated for 1-2 hr. After a final wash, 25 ul/well of TMB substrate (Kirkegaard & Perry Laboratories, Gaithersburg, Md.) was added to the ELISA plates. Color development was stopped after approximately 8min by adding 25 ul/well 1.0M phosphoric acid.” left out

Numbering of substitutions follows the chain as printed. Names may count otherwise.

As usually defined, the IC50 is the point on the concentration scale where inhibition reaches its midpoint. High values mean weaker potency, low ones greater potency.

T1 sequence (P01024 23-667 limits assumed, chain 1 of 2): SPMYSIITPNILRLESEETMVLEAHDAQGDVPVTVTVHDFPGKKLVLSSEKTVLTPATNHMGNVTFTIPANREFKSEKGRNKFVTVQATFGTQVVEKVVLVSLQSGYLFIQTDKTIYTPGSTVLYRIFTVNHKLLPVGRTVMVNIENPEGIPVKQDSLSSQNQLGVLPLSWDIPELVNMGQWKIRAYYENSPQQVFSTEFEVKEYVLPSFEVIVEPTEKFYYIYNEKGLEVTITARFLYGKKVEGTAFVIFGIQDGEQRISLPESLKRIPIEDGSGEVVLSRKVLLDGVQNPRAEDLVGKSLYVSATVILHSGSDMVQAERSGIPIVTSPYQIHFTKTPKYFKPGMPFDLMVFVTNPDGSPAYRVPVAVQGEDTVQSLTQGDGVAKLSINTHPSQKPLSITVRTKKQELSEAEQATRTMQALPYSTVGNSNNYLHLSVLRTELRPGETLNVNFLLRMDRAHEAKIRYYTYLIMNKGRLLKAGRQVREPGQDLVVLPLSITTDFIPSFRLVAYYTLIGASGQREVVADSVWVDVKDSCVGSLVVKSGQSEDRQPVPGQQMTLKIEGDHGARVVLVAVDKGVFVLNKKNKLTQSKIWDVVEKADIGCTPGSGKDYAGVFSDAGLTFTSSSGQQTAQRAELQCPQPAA
T1 sequence (P01024 749-1663 limits assumed, chain 2 of 2): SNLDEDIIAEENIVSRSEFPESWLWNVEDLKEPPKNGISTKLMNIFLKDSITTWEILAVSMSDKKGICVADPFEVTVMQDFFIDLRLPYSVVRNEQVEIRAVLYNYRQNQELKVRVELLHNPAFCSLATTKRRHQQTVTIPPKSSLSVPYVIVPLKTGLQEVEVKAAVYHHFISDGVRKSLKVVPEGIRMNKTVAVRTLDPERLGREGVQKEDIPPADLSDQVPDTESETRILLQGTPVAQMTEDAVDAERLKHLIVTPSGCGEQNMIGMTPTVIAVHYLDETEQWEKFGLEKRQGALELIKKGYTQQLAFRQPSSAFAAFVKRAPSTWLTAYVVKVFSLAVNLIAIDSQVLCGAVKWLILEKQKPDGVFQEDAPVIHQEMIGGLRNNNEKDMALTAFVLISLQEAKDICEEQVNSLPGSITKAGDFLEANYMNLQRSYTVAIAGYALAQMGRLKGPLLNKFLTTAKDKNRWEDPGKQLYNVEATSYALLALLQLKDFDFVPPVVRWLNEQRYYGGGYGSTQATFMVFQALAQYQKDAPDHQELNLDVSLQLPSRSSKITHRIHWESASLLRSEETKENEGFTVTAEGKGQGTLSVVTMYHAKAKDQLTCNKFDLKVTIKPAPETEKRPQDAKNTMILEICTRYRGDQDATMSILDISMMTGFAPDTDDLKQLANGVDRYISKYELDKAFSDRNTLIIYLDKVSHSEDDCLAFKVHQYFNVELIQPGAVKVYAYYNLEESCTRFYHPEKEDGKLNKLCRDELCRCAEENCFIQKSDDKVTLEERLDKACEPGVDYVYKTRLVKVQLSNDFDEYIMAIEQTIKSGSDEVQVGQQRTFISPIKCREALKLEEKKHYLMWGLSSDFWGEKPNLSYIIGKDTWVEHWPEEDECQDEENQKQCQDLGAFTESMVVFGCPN

B1: IRL24 (receptor)
CRIg variant: RPILEVPESVTGPWKGDVNLPCTYDPLQGYTQVLVKWLVQRDSHFVTIFLRDSSGDHIQIAKYRGRLHVSHKVPGDVSLQLSTLEMDDRSHYTCEVTWQTPDGNQVVRDKITELRVQKHSSKLLKTKTEAPTTMTYPLKATSTVKQSWDWTTDMDGYLGETSAGPGKSLP
notes: the mutation string is cut off at the cell border on the sheet; also called Q60I/Q64R/G42D/D44H/P45F
With B1, the IC50 in experiment [1] stood at 4 nM.

B2: IRL51 (receptor)
CRIg variant: B1 CRIg variant with D42G, H44D, F45P, Q105R
notes: also called Q60I-Q64R/Q105R
B2: in experiment [1], the IC50 turned out to be 24 nM.

B3: YL59 (receptor)
CRIg variant: B1 CRIg variant with D42G, H44D, F45P, I60Q, R64Q, M86Y, Q105R, K110N
notes: also called M86Y/Q105R/K110N
Molecule B3 gave a concentration for half-maximal inhibition (IC50) in experiment [1] of 18 nM.

B4: IRL55 or IRL56 (last digit not sure) (receptor)
CRIg variant: B1 CRIg variant with D42G, H44D, F45P, K110N
notes: row between IRL52 and IRL59; also called Q60I-Q64R/K110N
The molecule B4 showed an IC50 in experiment [1] of 33 nM.

B5: IRL52 (receptor)
CRIg variant: B1 CRIg variant with D42G, H44D, F45P, Q105K
notes: also called Q60I-Q64R/Q105K
For the molecule B5, the concentration for half-maximal inhibition (IC50) in experiment [1] stood at 22 nM.

B6: YL24 (receptor)
CRIg variant: B1 CRIg variant with I60Q, R64Q, M86Y
notes: also called M86Y/G42D/D44H/P45F
In experiment [1], B6 came in with a half-inhibitory concentration (IC50) of 31 nM.

B7: IRL41 (receptor)
CRIg variant: B1 CRIg variant with D42G, H44D, F45P, M86Y
notes: also called RIL41; RIL 41
For B7, in experiment [1], the IC50 stood at 10 nM. In experiment [2], the “IC50 (read off the curve)” value was around 10 nM.

B8: IRL11 (receptor)
CRIg variant: RPILEVPYSVTGPWKGDVNLPCTYDPLQGYTQVLVKWLVQRGSDPVTIFLRDSSGDHIQIAKYRGRLHVSHKVPGDVSLQLSTLEMDDRSHYTCEVTWQTPDGNQVVRDKITELRVQKHSSKLLKTKTEAPTTMTYPLKATSTVKQSWDWTTDMDGYLGETSAGPGK
notes: also called Q60I-Q64R/E8Y
B8: the IC50 in experiment [1] is 34 nM.

B9: IRL23 (receptor)
CRIg variant: B8 CRIg variant with Y8E, P45F
notes: also called Q60I-Q64R/P45F
In the case of B9, the 50% inhibitory concentration (IC50) in experiment [1] is 31 nM.

B10: RL59 (receptor)
CRIg variant: B8 CRIg variant with Y8E, I60Q, Q105R, K110N
notes: also called Q64R/Q105R/K110N
Consider B10, for which the IC50 in experiment [1] stood at 65 nM.

B11: L24 (receptor)
CRIg variant: B8 CRIg variant with Y8E, G42D, D44H, P45F, I60Q, R64Q
notes: also called G42D/D44H/P45F (printed G42D/D44/H/P45F)
B11: the IC50 in experiment [1] was 238 nM.

B12: IRL21 (receptor)
CRIg variant: B8 CRIg variant with Y8E, G42D
notes: also called Q60I-Q64R/G42D
For the molecule B12, the IC50 in experiment [1] was determined as 29 nM.

These data come from patent US20160008427A1 (Genentech, published 2016).
